In patent US20160038588A1, “Myostatin Antagonism in Human Subjects” (AMGEN INC., priority 2013, published 2016):

Experiments:
[1] = test system: men with prostate cancer receiving ADT; experiment: Clinical study: safety (adverse events, laboratory variables, ECG, vital signs); assay type: in vivo, human; settings: for DEATHS ON STUDY: during study or within 30 days of last dose
Description: Adverse events and concomitant medications were recorded at all study visits.
For safety analyses, all subjects who received AMG 745 or placebo were included and placebo-treated subjects from all cohorts were combined to form a composite placebo group.

[2] = test system: men with prostate cancer receiving ADT; experiment: Clinical study: lower extremity strength (1-RM knee extension) and SPPB; assay type: in vivo, human; set-up: End of Study SPPB-Total Score, Mean / End of Study SPPB-Total Score, Median / Change from Baseline to End of Study SPPB-Total Score, Mean / Change from Baseline to End of Study SPPB-Total Score, Median / Follow-up SPPB-Total Score, Mean / Follow-up SPPB-Total Score, Median: scale not given here; settings: 0.3 mg/kg SC 4-Week Dosing (N = 6)
Description: Lower extremity strength was assessed on the basis of maximum weight lifted for one repetition (1-RM) using a knee extension machine. This assessment was performed within 2 weeks prior to and/or up to Day 2, on Day 29, and at a 1 month follow-up visit.
Short Physical Performance Battery (SPPB) was conducted within 2 weeks prior to and/or up to Day 1, on Day 29, and at the 1 month follow-up visit. The SPPB included an assessment of standing balance, timed walk test, and five repetitions of chair stand.

[3] = 0.3 mg/kg SC 4-Week Dosing (N = 6)
[4] = 1.0 mg/kg SC 4-Week Dosing (N = 6)
[5] = 3.0 mg/kg SC 4-Week Dosing (N = 19)

Question: How did the “ALL ADVERSE EVENTS” value [1, 3] turn out when “AMG 745: anti-myostatin peptibody: human IgG1 Fc fused at C-terminus via GGGGGAQ linker to peptide SEQ ID NO:311; chain SEQ ID NO:635” was run?
Answer: 5 (83) n (%)

Question: And the “ALL TREATMENT-RELATED ADVERSE EVENTS” value [1, 3]?
Answer: 1 (17) n (%)

Question: And the “INVESTIGATIONAL PRODUCT DISCONTINUATIONS DUE TO ADVERSE EVENTS” value [1, 3]?
Answer: 0 (0) n (%)

Question: What about the “STUDY DISCONTINUATIONS DUE TO ADVERSE EVENTS” value [1, 3] of the same substance?
Answer: 0 (0) n (%)

Question: And the “Serious adverse events (all adverse events)” value [1, 3]?
Answer: 0 (0) n (%)

Question: What about the “Serious adverse events (treatment-related)” value [1, 3] of the same substance?
Answer: 0 (0) n (%)

Question: And the “DEATHS ON STUDY” value [1, 3]?
Answer: 0 (0) n (%)

Question: What about the “ALL ADVERSE EVENTS” value [1, 4] of the same substance?
Answer: 5 (83) n (%)

Question: What about the “ALL TREATMENT-RELATED ADVERSE EVENTS” value [1, 4] of the same substance?
Answer: 3 (50) n (%)

Question: What about the “INVESTIGATIONAL PRODUCT DISCONTINUATIONS DUE TO ADVERSE EVENTS” value [1, 4] of the same substance?
Answer: 0 (0) n (%)

Question: And the “STUDY DISCONTINUATIONS DUE TO ADVERSE EVENTS” value [1, 4]?
Answer: 0 (0) n (%)

Question: And the “Serious adverse events (all adverse events)” value [1, 4]?
Answer: 0 (0) n (%)

Question: And the “Serious adverse events (treatment-related)” value [1, 4]?
Answer: 0 (0) n (%)

Question: What about the “DEATHS ON STUDY” value [1, 4] of the same substance?
Answer: 0 (0) n (%)

Question: And the “ALL ADVERSE EVENTS” value [1, 5]?
Answer: 15 (79) n (%)

Question: And the “ALL TREATMENT-RELATED ADVERSE EVENTS” value [1, 5]?
Answer: 3 (16) n (%)

Question: What about the “INVESTIGATIONAL PRODUCT DISCONTINUATIONS DUE TO ADVERSE EVENTS” value [1, 5] of the same substance?
Answer: 1 (5) n (%)

Question: What about the “STUDY DISCONTINUATIONS DUE TO ADVERSE EVENTS” value [1, 5] of the same substance?
Answer: 0 (0) n (%)

Question: And the “Serious adverse events (all adverse events)” value [1, 5]?
Answer: 1 (5) n (%)

Question: What about the “Serious adverse events (treatment-related)” value [1, 5] of the same substance?
Answer: 0 (0) n (%)

Question: What about the “DEATHS ON STUDY” value [1, 5] of the same substance?
Answer: 0 (0) n (%)

Question: What about the “relationship between subject incidence of adverse events and dose” value ([1]; 0.3 to 3 mg/kg) of the same substance?
Answer: No relationship was apparent

Question: And the “highest alanine aminotransferase [ALT]” value ([1]; 1 subject, 0.3 mg/kg)?
Answer: 1.7 times the upper limit of normal (ULN)

Question: And the “highest alkaline phosphatase [AP]” value ([1]; 1 subject, 0.3 mg/kg)?
Answer: 1.5 times the upper limit of normal (ULN)

Question: What about the “highest aspartate aminotransferase [AST]” value ([1]; 1 subject, 0.3 mg/kg) of the same substance?
Answer: 2.2 times the upper limit of normal (ULN)

Question: And the “injection site bruising, subject incidence” value ([1]; 2/31)?
Answer: 6%

Question: And the “subjects discontinued because of adverse events (erythema of the abdomen)” value ([1]; 3-mg/kg dose cohort, after the second dose)?
Answer: 1 subject

Question: What about the “serious adverse events (syncope), number” value ([1]; 3-mg/kg dose cohort, considered unrelated to treatment) of the same substance?
Answer: 1

Question: And the “contusion, subject incidence” value ([1]; 3/31)?
Answer: 10%

Question: And the “diarrhea, subject incidence” value ([1]; 4/31)?
Answer: 13%

Question: And the “fatigue, subject incidence” value ([1]; 4/31)?
Answer: 13%

Question: And the tolerability ([1]; 4 weekly SC doses, as high as 3.0 mg/kg)?
Answer: generally well tolerated

Question: And the “subjects with treatment-related adverse events” value ([1]; AMG 745 at any dose, 7 of 31 subjects)?
Answer: 23%

Question: What about the “subjects with adverse events” value ([1]; AMG 745 at any dose, 25 of 31 subjects) of the same substance?
Answer: 81%

Question: And the “ALL ADVERSE EVENTS” value ([1]; All AMG 745 Subjects (N = 31))?
Answer: 25 (81) n (%)

Question: What about the “ALL TREATMENT-RELATED ADVERSE EVENTS” value ([1]; All AMG 745 Subjects (N = 31)) of the same substance?
Answer: 7 (23) n (%)

Question: And the “INVESTIGATIONAL PRODUCT DISCONTINUATIONS DUE TO ADVERSE EVENTS” value ([1]; All AMG 745 Subjects (N = 31))?
Answer: 1 (3) n (%)

Question: And the “STUDY DISCONTINUATIONS DUE TO ADVERSE EVENTS” value ([1]; All AMG 745 Subjects (N = 31))?
Answer: 0 (0) n (%)

Question: And the “Serious adverse events (all adverse events)” value ([1]; All AMG 745 Subjects (N = 31))?
Answer: 1 (3) n (%)

Question: And the “Serious adverse events (treatment-related)” value ([1]; All AMG 745 Subjects (N = 31))?
Answer: 0 (0) n (%)

Question: What about the “DEATHS ON STUDY” value ([1]; All AMG 745 Subjects (N = 31)) of the same substance?
Answer: 0 (0) n (%)

Question: What about the “fasting plasma glucose, insulin, cholesterol, LDL, HDL, triglycerides vs placebo” value ([1]; human, in vivo) of the same substance?
Answer: no apparent differences between treatment groups

Question: And the “Change from Baseline to End of Study SPPB-Total Score, Mean” value [2]?
Answer: 0.67

Question: What about the “Change from Baseline to End of Study SPPB-Total Score, Median” value [2] of the same substance?
Answer: 1.00
